Measured values published in article PMC5879678 (Proceedings of the National Academy of Sciences of the …, 2018).

B1: TasA261 (mature secreted TasA, amino acids 28-261) (natural protein, Bacillus subtilis, UniProt P54507 28-261, looked up)
chain: AFNDIKSKDATFASGTLDLSAKENSASVNLSNLKPGDKLTKDFQFENNGSLAIKEVLMALNYGDFKANGGSNTSPEDFLSQFEVTLLTVGKEGGNGYPKNIILDDANLKDLYLMSAKNDAAAAEKIKKQIDPKFLNASGKVNVATIDGKTAPEYDGVPKTPTDFDQVQMEIQFKDDKTKDEKGLMVQNKYQGNSIKLQFSFEATQWNGLTIKKDHTDKDGYVKENEKAHSEDKN
modifications: 2H,13C,15N isotope labelling in the NMR samples
B2: TasA239 (TasA core domain, amino acids 28-239) (domain or fragment, Bacillus subtilis, UniProt P54507 28-239, looked up)
chain: AFNDIKSKDATFASGTLDLSAKENSASVNLSNLKPGDKLTKDFQFENNGSLAIKEVLMALNYGDFKANGGSNTSPEDFLSQFEVTLLTVGKEGGNGYPKNIILDDANLKDLYLMSAKNDAAAAEKIKKQIDPKFLNASGKVNVATIDGKTAPEYDGVPKTPTDFDQVQMEIQFKDDKTKDEKGLMVQNKYQGNSIKLQFSFEATQWNGLTIK
modifications: 2H,15N,13C isotope labelling in the NMR samples

What was measured:
AUC = biological target: the molecule itself; test: AUC
[1] = biological target: the molecule itself; test: Thioflavin T fluorescence

Protein | stoichiometry N (AUC) | binding result [1]
B1 | 12 | –
B2 | – | binds
